Data set [1] concerns HeLa Kyoto. Briefly: solubility in G1/S (NP-40 vs SDS abundance) (log2 ratio); higher = more soluble. Particulars: cell cycle stage: G1/S.
The test system of data set [2] is HeLa Kyoto. Kind of data set: melting temperature (median over replicates), in situ; higher = more thermally stable.
In data set [3] the test system is HeLa Kyoto. Kind of data set: solubility change mitosis vs G1/S (difference of NP-40 vs SDS log2 ratios) (log2 ratio difference); higher = more soluble in mitosis.
Data set [4] has as its system HeLa Kyoto. Briefly: thermal stability score vs G1/S (z-score of summed log2 fold changes over temperatures); higher = more thermally stable than in G1/S.
[5] abbreviates: cell cycle stage: early G1 (4.5 h after nocodazole release).
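Throughout, for melting temperature (median over replicates), in situ: HeLa Kyoto cells synchronized by double thymidine or nocodazole block, proteins quantified by TMT10plex mass spectrometry, three independent biological replicates.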
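Throughout, for solubility change mitosis vs G1/S (difference of NP-40 vs SDS log2 ratios): synchronized HeLa Kyoto cells (double thymidine block for G1/S, nocodazole release for mitosis), protein amounts in NP-40 versus SDS lysates quantified by mass spectrometry, three biological replicates.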
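Throughout, for solubility in G1/S (NP-40 vs SDS abundance): HeLa Kyoto cells arrested at G1/S by double thymidine block, proteins quantified by TMT10plex mass spectrometry in mild NP-40 versus SDS extracts, three biological replicates.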
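Throughout, for thermal stability score vs G1/S (z-score of summed log2 fold changes over temperatures): synchronized HeLa Kyoto cells, proteins quantified by TMT10plex mass spectrometry, three biological replicates, mitosis taken 0.5 h after nocodazole release, G1/S directly after double thymidine block.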

As to “MEVSGPEDDPFLSQLHQVQCPVCQQMMPAAHINSHLDRCLLLHPAGHAEPAAGSHRAGERAKGPSPPGAKRRRLSESSALKQPATPTAAESSEGEGEEGDDGGETESRESYDAPPTPSGARLIPDFPVARSSSPGRKGSGKRPAAAAAAGSASPRSWDEAEAQEEEEAVGDGDGDGDADADGEDDPGHWDADAAEAATAFGASGGGRPHPRALAAEEIRQMLQGKPLADTMRPDTLQDYFGQSKAVGQDTLLRSLLETNEIPSLILWGPPGCGKTTLAHIIASNSKKHSIRFVTLSATNAKTNDVRDVIKQAQNEKSFFKRKTILFIDEIHRFNKSQQDTFLPHVECGTITLIGATTENPSFQVNAALLSRCRVIVLEKLPVEAMVTILMRAINSLGIHVLDSSRPTDPLSHSSNSSSEPAMFIEDKAVDTLAYLSDGDARAGLNGLQLAVLARLSSRKMFCKKSGQSYSPSRVLITENDVKEGLQRSHILYDRAGEEHYNCISALHKSMRGSDQNASLYWLARMLEGGEDPLYVARRLVRFASEDIGLADPSALTQAVAAYQGCHFIGMPECEVLLAQCVVYFARAPKSIEVYSAYNNVKACLRNHQGPLPPVPLHLRNAPTRLMKDLGYGKGYKYNPMYSEPVDQEYLPEELRGVDFFKQRRC [WRNIP1]”, in the data set with HeLa Kyoto [1], the “solubility in G1/S (log2)” value was determined as 0.228. The results for the melting temperature with HeLa Kyoto [2] (cell cycle stage: G1/S) and in the data set on HeLa Kyoto [2] (cell cycle stage: mitosis) were 47.5 °C and 49.3 °C, respectively. Further, the “solubility change mitosis (log2)” value with HeLa Kyoto [3] is -0.0694. For the same substance, the thermal stability score in the data set with HeLa Kyoto [4] (setting [5]) turned out to be 2.61; in the data set with HeLa Kyoto [4] (cell cycle stage: mitosis), 5.06.
With “MAAAVAAAGAGEPQSPDELLPKGDAEKPEEELEEDDDEELDETLSERLWGLTEMFPERVRSAAGATFDLSLFVAQKMYRFSRAALWIGTTSFMILVLPVVFETEKLQMEQQQQLQQRQILLGPNTGLSGGMPGALPSLPGKI [TOMM22]”, the “solubility in G1/S (log2)” value in the data set on HeLa Kyoto [1] is -0.782. For the same substance, the melting temperature came to 53.4 °C in the data set on HeLa Kyoto [2] (cell cycle stage: G1/S) and 52.8 °C in the data set on HeLa Kyoto [2] (cell cycle stage: mitosis). In the data set on HeLa Kyoto [3], the “solubility change mitosis (log2)” value worked out at 0.211. Besides, the figures for the thermal stability score in the data set on HeLa Kyoto [4] (setting [5]) and in the data set on HeLa Kyoto [4] (cell cycle stage: mitosis) were -3.84 and -4.82, respectively.
MYO5C: in the data set with HeLa Kyoto [1], the “solubility in G1/S (log2)” value is -0.665. The substance further displayed a melting temperature in the data set with HeLa Kyoto [2] (cell cycle stage: G1/S) of 50.9 °C. Besides, the “solubility change mitosis (log2)” value in the data set with HeLa Kyoto [3] is 0.291. The thermal stability score in the data set on HeLa Kyoto [4] (setting [5]) stood at 0.384; with HeLa Kyoto [4] (cell cycle stage: mitosis) it was 1.14.
On to “MAIPGRQYGLILPKKTQQLHPVLQKPSVFGNDSDDDDETSVSESLQREAAKKQAMKQTKLEIQKALAEDATVYEYDSIYDEMQKKKEENNPKLLLGKDRKPKYIHNLLKAVEIRKKEQEKRMEKKIQREREMEKGEFDDKEAFVTSAYKKKLQERAEEEEREKRAAALEACLDVTKQKDLSGFYRHLLNQAVGEEEVPKCSFREARSGIKEEKSRGFSNEVSSKNRIPQEKCILQTDVKVEENPDADSDFDAKSSADDEIEETRVNCRREKVIETPENDFKHHRSQNHSRSPSEERGHSTRHHTKGSRTSRGHEKREDQHQQKQSRDQENHYTDRDYRKERDSHRHREASHRDSHWKRHEQEDKPRARDQRERSDRVWKREKDREKYSQREQERDRQQNDQNRPSEKGEKEEKSKAKEEHMKVRKERYENNDKYRDREKREVGVQSSERNQDRKESSPNSRAKDKFLDQERSNKMRNMAKDKERNQEKPSNSESSLGAKHRLTEEGQEKGKEQERPPEAVSKFAKRNNEETVMSARDRYLARQMARVNAKTYIEKEDD [NSRP1]”, for which the “solubility in G1/S (log2)” value in the data set on HeLa Kyoto [1] was -0.433. Besides, the melting temperature in the data set with HeLa Kyoto [2] (cell cycle stage: G1/S) is 55.3 °C; in the data set on HeLa Kyoto [2] (cell cycle stage: mitosis), 55.6 °C. In addition, in the data set on HeLa Kyoto [3], the “solubility change mitosis (log2)” value was 0.242. Besides, the figures for the thermal stability score in the data set with HeLa Kyoto [4] (setting [5]) and in the data set with HeLa Kyoto [4] (cell cycle stage: mitosis) were 0.0783 and -1.16, respectively.
Regarding “MSTAAVPELKQISRVEAMRLGPGWSHSCHAMLYAANPGQLFGRIPMRFSVLMQMRFDGLLGFPGGFVDRRFWSLEDGLNRVLGLGLGCLRLTEADYLSSHLTEGPHRVVAHLYARQLTLEQLHAVEISAVHSRDHGLEVLGLVRVPLYTQKDRVGGFPNFLSNAFVSTAKCQLLFALKVLNMMPEEKLVEALAAATEKQKKALEKLLPASS [NUDT16L1]”, the “solubility in G1/S (log2)” value in the data set on HeLa Kyoto [1] is -0.521. For the same substance, the melting temperature with HeLa Kyoto [2] (cell cycle stage: G1/S) is 52 °C; in the data set with HeLa Kyoto [2] (cell cycle stage: mitosis), 52.3 °C. Moreover, the “solubility change mitosis (log2)” value in the data set on HeLa Kyoto [3] stood at 0.104. The thermal stability score in the data set on HeLa Kyoto [4] (setting [5]) is -0.0688; with HeLa Kyoto [4] (cell cycle stage: mitosis), -2.32.
“MSGCDAREGDCCSRRCGAQDKEHPRYLIPELCKQFYHLGWVTGTGGGISLKHGDEIYIAPSGVQKERIQPEDMFVCDINEKDISGPSPSKKLKKSQCTPLFMNAYTMRGAGAVIHTHSKAAVMATLLFPGREFKITHQEMIKGIKKCTSGGYYRYDDMLVVPIIENTPEEKDLKDRMAHAMNEYPDSCAVLVRRHGVYVWGETWEKAKTMCECYDYLFDIAVSMKKVGLDPSQLPVGENGIV [APIP]”: the “solubility in G1/S (log2)” value in the data set on HeLa Kyoto [1] worked out at 0.253. Besides, the melting temperature with HeLa Kyoto [2] (cell cycle stage: G1/S) was found to be 59.3 °C; in the data set with HeLa Kyoto [2] (cell cycle stage: mitosis), 57.6 °C. Moreover, the “solubility change mitosis (log2)” value in the data set on HeLa Kyoto [3] is -0.078. The thermal stability score was -1.32 with HeLa Kyoto [4] (setting [5]) and -2.26 in the data set on HeLa Kyoto [4] (cell cycle stage: mitosis).

The values are drawn from the supplement of paper PMC5998384.
